Measured values reported in PMC4294677 (Molecular Biology of the Cell, 2015).

Experiments:
[1] = target: phospho-HOPS (HOPS phosphorylated by the vacuolar kinase Yck3p) (S. cerevisiae, UniProt P12868;Q03308;P27801;P20795;Q07468;P38959); test: liposome floatation
[2] = target: HOPS (homotypic fusion and vacuole protein sorting complex) (S. cerevisiae, UniProt P12868;Q03308;P27801;P20795;Q07468;P38959); test: liposome floatation

B1: Ypt7p:GTP (vacuolar Rab-family GTPase Ypt7p in its GTP-bound state) (natural protein)
chain: MSSRKKNILKVIILGDSGVGKTSLMHRYVNDKYSQQYKATIGADFLTKEVTVDGDKVATMQVWDTAGQERFQSLGVAFYRGADCCVLVYDVTNASSFENIKSWRDEFLVHANVNSPETFPFVILGNKIDAEESKKIVSEKSAQELAKSLGDIPLFLTSAKNAINVDTAFEEIARSALQQNQADTEAFEDDYNDAINIRLDGENNSCSC
- binding result [1]: binds
- binding result [2]: binds
